{"source": "paper PMC10979411", "origin": "cited, not measured here", "molecular_target": "Nterm (UniProt position 44, ADPEAGIGAVL)", "experiment": "NMR", "conditions": "micelle-associated melittin"}
{"substance": "Melittin (Apis mellifera (inferred; organism not stated in the article))", "values": [{"measurement": "pKa", "result": "7.15–8.15"}]}
